PMC9367177
Read-outs that look alike come from different tables or passages of the source.

Columns and labels:
[1] = target: SARS-CoV-2 RBD (Wuhan-1) (SARS-CoV-2, Wuhan-1) (UniProt P0DTC2); assay: SPR
[2] = target: SARS-CoV-2 RBD (Wuhan-1) (SARS-CoV-2, Wuhan-1) (UniProt P0DTC2); assay: SPR; remark: listed apart in the source

Substance: CC12.1 (antibody)
- kon [1]: 696000 M⁻¹ s⁻¹
- Kd [2]: 5.92 nM
- koff [2]: 0.00412 s⁻¹
- kon [2]: 695000 M⁻¹ s⁻¹
